In the series the target is Timeless (optimised construct);Tipin (human;human, UniProt Q9UNS1;Q9BVW5 1-238+=GSTGST+331-1208;1-301, internal_change|). The series can be described thus: EMSA. In general terms: A gel shift assay detects complexes by their altered migration in electrophoresis.

The source of these data is publication doi:10.1101/826578.

B1: dsG4 (dsGQ) (structured_DNA)
DNA 1: ACGAGAGCTAGCACATTTTGAGGGTGGGTAGGGTGGGTAATTTTCACGTAGAACCTGT
DNA 2: ACAGGTTCTACGTGATTTTTTTTTTTTTTTTTTTTTTTTTTTTTGTGCTAGCTCTCGT
For the molecule B1, the binding result is reported as “binds”.

B2: dsHP (structured_DNA)
DNA 1: ACGAGAGCTAGCACATTTTGAGGCTGCGTTTCGCAGCCTCAATTTCACGTAGAACCTGT
DNA 2: B1 DNA 2
Regarding B2, the binding result was “no binding”.
